T1: human GITR (human, UniProt Q9Y5U5 26-241)
T1 sequence: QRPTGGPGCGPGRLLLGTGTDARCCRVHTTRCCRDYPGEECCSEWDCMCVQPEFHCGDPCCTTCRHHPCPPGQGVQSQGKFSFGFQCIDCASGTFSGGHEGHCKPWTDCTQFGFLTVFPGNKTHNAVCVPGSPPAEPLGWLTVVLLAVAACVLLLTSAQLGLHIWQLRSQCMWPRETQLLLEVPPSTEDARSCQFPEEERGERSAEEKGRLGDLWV

T2: human GITR-Fc (Enzo Life Sciences, ALX-522-061-C050) (human, UniProt Q9Y5U5 26-162)
T2 construct: Bought protein; not shown: Fc part of the bought fusion protein; not described
T2 sequence: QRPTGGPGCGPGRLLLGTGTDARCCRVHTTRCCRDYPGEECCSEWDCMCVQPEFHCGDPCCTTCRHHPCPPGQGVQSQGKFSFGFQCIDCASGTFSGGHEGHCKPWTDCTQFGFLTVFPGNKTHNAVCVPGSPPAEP

B1: A023100129 (VHH)
chain: DVQLVESGGGVVQPGGSLRLSCAASGSIFSIDSMGWYRQAPGKQRELVAAITSSTNYADSVKGRFTISRDNSKNTVYLQMNSLRPEDTALYYCNLEGQAGWGTALINYWGQGTLVTVSSGGGGSGGGSEVQLVESGGGVVQPGGSLRLSCAASGSIFSIDSMGWYRQAPGKQRELVAAITSSTNYADSVKGRFTISRDNSKNTVYLQMNSLRPEDTALYYCNLEGQAGWGTALINYWGQGTLVTVSSGGGGSGGGSEVQLVESGGGVVQPGGSLRLSCAASGSIFSIDSMGWYRQAPGKQRELVAAITSSTNYADSVKGRFTISRDNSKNTVYLQMNSLRPEDTALYYCNLEGQAGWGTALINYWGQGTLVTVSSGGGGSGGGSEVQLVESGGGVVQPGGSLRLSCAASGSIFSIDSMGWYRQAPGKQRELVAAITSSTNYADSVKGRFTISRDNSKNTVYLQMNSLRPEDTALYYCNLEGQAGWGTALINYWGQGTLVTVSSGGGGSGGGSEVQLVESGGGVVQPGGSLRLSCAASGSIFSIDSMGWYRQAPGKQRELVAAITSSTNYADSVKGRFTISRDNSKNTVYLQMNSLRPEDTALYYCNLEGQAGWGTALINYWGQGTLVTVSSGGGGSGGGGSGGGGSGGGGSGGGGSGGGGSGGGGSEVQLVESGGGVVQPGGSLRLSCAASGFTFRSFGMSWVRQAPGKGPEWVSSISGSGSDTLYADSVKGRFTISRDNSKNTLYLQMNSLRPEDTALYYCTIGGSLSRSSQGTLVTVSSA
B2: A0231004B01 (VHH)
VHH: EVQLVESGGGLVQPGGSLRLSCAASGSIFSIDSMGWYRQAPGKQRELVAAITSSTNYADSVKGRFTISRDNAKNTVYLQMNSLKPEDTAVYYCNLEGQAGWGTALINYWGKGTLVTVSS
notes: Monovalent Nanobody expressed in E. coli with a triple Flag, HIS6 tag; also called A0231PMP004B01; PA0231PMP004B01.1; not shown: C-terminal triple FLAG and HIS6 tag
B3: A0231052A08 (VHH)
VHH: EVQLVESGGGLVQAGGSLRLSCVASGSISSITAMGWHRQAPGAQREGVAVISRSGATMLVDSVKGRFTIVQDNAKNTVYLQMNSLKVEDTAVYGCSAITQGRTYWGQGTLVTVSS
notes: Monovalent Nanobody expressed in E. coli with a triple Flag, HIS6 tag; also called A0231PMP052A08; PA0231PMP052A08.1; not shown: C-terminal triple FLAG and HIS6 tag
B4: A0231005A03 (VHH)
VHH: EVQLVESGGGLVQPGGSLRLSCAASETIFSIDSMAWYRQAPGKQRELVAAITGGGSPNYADSVKGRFTISSDVAKRTVYLQMNSLKPEDTAVYYCNAEGQAGWGTALMDYWGKGTLVTVSS
notes: Monovalent Nanobody expressed in E. coli with a triple Flag, HIS6 tag; also called A0231PMP005A03; PA0231PMP005A03.1; not shown: C-terminal triple FLAG and HIS6 tag
B5: A0231003D11 (VHH)
VHH: EVQLVESGGGLVQAGESLRLSCAASGSIFSIDAMGWYRQAPGKQRELVAEISDHTTYGDSVKGRFTISRGNAENTVALQMNSLKPEDTGVYYCNVHHQRGWGTSITVTWGQGTQVTVSS
notes: Monovalent Nanobody expressed in E. coli with a triple Flag, HIS6 tag; also called A0231PMP003D11; PA0231PMP003D11.1; not shown: C-terminal triple FLAG and HIS6 tag
B6: A0231033B02 (VHH)
VHH: EVQLVESGGGLVQPGGSLRLSCAASGTIFSISTMGWYRQAPGKQREVVAVTSGFSTNYSSAVKGRFTLSRDPAKNTVFLQMNSLQPEDTATYYCNAYLSLAWRDPDRDYWGQGTQVTVSS
notes: Monovalent Nanobody expressed in E. coli with a triple Flag, HIS6 tag; also called A0231PMP033B02; PA0231PMP033B02.1; not shown: C-terminal triple FLAG and HIS6 tag
B7: A0231034A08 (VHH)
VHH: EVQLVESGGDLVQPGGSLRLSCAASGSVFSINDMGWFRQAPGKQRELVADIISRGVTNYADSVKGRFTISGDPAKNTVYLQMNSLKPEDTAVYYCNAHISTGWGRPHNNYWGQGTQVTVSS
notes: Monovalent Nanobody expressed in E. coli with a triple Flag, HIS6 tag; also called A0231PMP034A08; PA0231PMP034A08.1; not shown: C-terminal triple FLAG and HIS6 tag

These binders were tested against T1, human GITR (assay: cell-based or functional assay).

| EC50, HEK293_NF-κB luc reporter | Efficacy (%), human GITR ligand = 100%, HEK293_NF-κB luc reporter | Binder |
| --- | --- | --- |
| 0.0118 nM | 146% | B1 |

The binders below were run against T1, human GITR (assay: flow cytometry on activated human T cells, anti-FLAG detection).
Procedure: Binding of purified monovalent anti-GITR Nanobodies to human GITR expressed on activated T cells was evaluated in flow cytometry. For this purpose, PBMCs from healthy donors were cultured with Dynabeads® Human T-Activator CD3/CD28 (Gibco—Life Technologies #11131D) for 7 days in a 1/2 bead/cell ratio.
Dilution series of Nanobodies starting from […] were applied to the cells. Nanobodies were allowed to associate for 30 minutes at 4° C. in FACS buffer (PBS supplemented with 10% FBS and 0.05% azide). Cells were washed by centrifugation and probed with anti-FLAG antibodies (Sigma F1804) for 30 minutes at 4° C., to detect bound Nanobody. […] Cells were washed and incubated with TOPRO3 to stain for dead cells which were subsequently removed during the gating procedure. The cells were then analysed via a BD FACSArray.

| EC50 | Binder |
| --- | --- |
| 0.61 nM | B2 |
| 23 nM | B3 |
| 0.79 nM | B4 |
| 1.3 nM | B5 |
| 21 nM | B6 |
| 0.54 nM | B7 |

Target: T1, human GITR
Assay: cell-based or functional assay
Remark: another data set of the same source

| EC50, IFN-γ read-out, human T cell activation assay | Maximal efficacy (%), human GITR ligand = 100%, IFN-γ read-out | Binder |
| --- | --- | --- |
| 0.0515 nM | 108% | B1 |

Each binder was assayed against T2, human GITR-Fc (Enzo Life Sciences, …) (assay: ProteOn XPR36; human GITR-Fc amine-coupled on GLC chip, Nanobody injected at 6 concentrations).
Procedure: Affinity was determined on the Proteon XPR36. Briefly, after human GITR-Fc (Enzo Life Sciences, ALX-522-061-C050) was immobilized on a GLC chip via amine coupling, a range of 6 concentrations of different monovalent Nanobodies (representing each family) were injected. The Ko values were determined by using the calculated association rate and dissociation rate constants (Table 1) (ProteOn Manager 3.1.0, Version 3.1.0.6 (2011)).

| Kd | koff | kon | Binder |
| --- | --- | --- | --- |
| 2.6 nM | 0.0027 s⁻¹ | 1.1e+06 M⁻¹ s⁻¹ | B2 |
| 24 nM | 0.00097 s⁻¹ | 41000 M⁻¹ s⁻¹ | B3 |
| 3.4 nM | 0.0023 s⁻¹ | 680000 M⁻¹ s⁻¹ | B4 |
| 4.6 nM | 0.0029 s⁻¹ | 630000 M⁻¹ s⁻¹ | B5 |
| 16 nM | 0.008 s⁻¹ | 490000 M⁻¹ s⁻¹ | B6 |
| 2.5 nM | 0.00067 s⁻¹ | 270000 M⁻¹ s⁻¹ | B7 |

Source: patent US20220411521A1 (Ablynx, published 2022)
